Earlier results on one substance are cited in US12186373B2, “Compositions in the form of an injectable aqueous solution comprising amylin, an amylin agonist receptor or an amylin analogue and a co-polyamino acid” (ADOCIA, priority 2017, dated 2025).

For this data set the following is noted: acidic pH.

For the substance “amylin: peptide of 37 amino acids which is stored and co-secreted with insulin (KCNTATCATQRLANFLVHSSNNFGAILSSTNVGSNTY; Islet amyloid polypeptide; UniProt P10997 34-70, looked up)”, the “time for which amylin is stable” value is on record as “about fifteen minutes”.
